Experimental data reported in the supplement of paper PMC9170038.

system: K4 kissing-loop RNA reporter; assay: apparent KD of K4 kissing-loop reporter; higher = weaker reporter binding; settings: Eterna round: R107; input ligand: arginine 13.2 mM
Description: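 RNA-MaP round R107: designed RNA switches with theophylline, tryptophan, arginine or FMN aptamers are transcribed on-chip within common flanks. They are titrated with a labelled K4 kissing-loop RNA reporter in RNA-MaP buffer (100 mM Tris pH 7.5, 80 mM KCl, 4 mM MgCl2), without ligand or with the indicated ligand. Median apparent KD per design.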
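Note: bound reporter read as fluorescence of individual clusters on recovered sequencing chips by microscopy, with normalized cluster intensities fitted with a binding model.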

Sequence | apparent KD of K4 kissing-loop reporter [nM]
UGUCAUUGGUCGGCCGCCACUAUAAUAAAAGAGUGAUGUUCUAAAAGACGGACAAAAGUCUGUCGUAGGACCGGGACCGAUGACU [TrypBS 26 #SwitchBubble #StaticStem] | 551
CGCAGUGAUGUUGCUUUUAUUCUUGGUUAACGAGGACCGGUACGGCCGCCACUCGAUUUCUAUCUAUUCCAGUGUUUUUUUGAGU [JR_ExcTryptoA_Sub004] | 374
AGUUCAGAGUGACUCGAUAAGAGUCACAAACGAGGACCGGUACGGCCGCCACUCGAAAUAACGAGAGUGAUGUUCUCGCUGGGCA [FiskerMod 2 - Jieux - Same State Tryptophan A] | 674
GUCUGCGUCUCGGCCGCCACUCACUAGUGAUGUUAGUAAGGAGCGACUAGCGCAGUCCUGAAGAUGAGGACCGGGAGACGCAGGA [Exclusion Tryptophan B GF5] | 110
UCCUGCACGGUCGAUACCAGCCUAUGCAGUGAUGUUGUAAGGUUGUCACUUUAGUACGAAGGCCCUUGGCAGCGAUGAUGUAACA [theeternabot_exclusion_KL_Theo_B_41] | 470
UACACGACUCGUGUAAACCGAGGUAACAGGCAGGAUAUGUAACGGAACAGAAGGGCCAUGUAGCGUGUCCAGUGAUGUUGGAUGC [Betilare] | 166
ACGAUCAUGUCGGCCGCCACUGAGAGUAGUGAUGUUACUCUUUUCCUUUAGUUAUUAUAUUUUAUCAGGACCGGGACAUGUUCGU [JR_ExcTryptoB_Sub022] | 66.7
UGAUACCAGACGGCCGCCACUCUUGCAGUCAAAGACUGCUAAAAGGAAAUCGUCCAGUGAUGUUGGAGGACCGGGUCUGGUAUCU [TrypBX 15 #SwitchBubble #Palindromic #StaticStem] | 774
AUACGUUUCAGAGGAUAUCGGAGGAGAGUGAUGUUCUCCCAUAGCCCAGUGAUGUUGGAAGCUAUCCGAGAAGGCUGUGGGCGUA [Same State FMN B GF 15] | 174
AAAGCAUUGAGAAGGAGCGUGUCGUGGAGUGAUGUUCCAUUGUAGACCUAAGGUCUACAAGCACAGGUAGGUCGCUCAUUGCUAA [JR_Nu_SSArginiB_Sub023] | 148
AAUACGCCGAAAGGAUAUAUAGAACAUCAAGGGCGCUGACUUUGCUAAAUCACAAGUGAUGUUUGUAUAGAAGGUUCGCAGUCAA [theeternabot_exclusion_KL_FMN_B_30] | 427
AGACUACUGAUAGGAUAUAACAUCCUAGUCGUAUACCGAAAGGUAUACGAAACCCUUCUAGUGAUGUUAGAAGGGUCGGUAGUCA [Omei KL FMN B Exc B v9] | 67.1
UCCAGGAAUCAUGUCGUAGUGAUGUUAUGACGAGGACCGGUACGGCCGCCACUCGUCGUGGCCGGUUCUGAGGGCUAAUCUCUCA [theeternabot_exclusion_KL_Trp_A_34] | 214
UUCCUCAUGGUAGUGAUGUUGCCGCCCGAUACCAGUCGACGUAUUGACCCUUGGCAGCGGAUCAAGUCCGAUUAAUUUUUUGGUC [theeternabot_sameState_KL_Theo_A_5] | 190
AAAACUAUCAGAAGGAGCGUGGAAUAUUCAUCUGUAUCUAAUACGAGUGAUGUUCGUAAUUCACAGGUAGGUCGCUGAUCAAUAA [whbob_Ex_Arginine_B_2th155] | 226
AUCGUUGUCUGAGGAUAUCGGUUAUCUGUAGUGAUGUUACAGUAUAUUCAUAUUAUACUUUCUAUUCGAGAAGGCAGACUACGUA [JR_Nu_ExcFMNB_Sub020] | 80.5
CCAUCGCUAUUCGAUACCAGCCAAGAGGUCUUUGGCCUCUUAAUGGAGUGAUGUUCCAUUGGCCCUUGGCAGCGAAUAGUGAUGG [Theophylline B K4 18] | 489

Sequence | apparent KD of K4 kissing-loop reporter [nM]
AGGCACGAGCAAGGAUAUUGAGUAGAGUGAUGUUCUGCCUGGGUUGGCUCGUAAGAGCCUUCUCAGCGAGAAGGUGCUCGUGCCU [#2 Same State - FMN A Attempt #23 (HarryS)] | 432
GGAUCUGCCAGUGAUGUUGGUUAAUAUAUCAAGGAUAUGACGAAAGUCAGAAGGUGAAAGACUGGACAAAGUCCAGUCGGAUCCA [KL-SSFMN-A20] | 312
CCUAUCUCAUACGAUACCAGUGAAAUAAUAUUUAUAAGCAGUGAUGUUGCAUUCCAAGAACACCCUUGGCAGCGUAUGGGAUAGG [Ex Theophylline B K4 19] | 187
CGAGUGAUGUUCGUUUUUUAAUUUUUUUGACAGGAUAUGCGGAAACGCAGAAGGGUCACCUUUGAGUUAAAAGAAUUUAUUUUUU [Ex FMN A 17] | 236
AUAAACUUGCAGUGAUGUUGCAAGUAAGACUAGGAUAUCAGGAAACUGAGAAGGAGUCAUCUCCUUCACUUGCAACUAGGAGGAG [[K1]-[K2]-[F1]-[F2]-[F]'-[K]'-[F]''_Design6] | 93.4
GAUGGUGGCAGUGAAGUGAUGUUUCAUGAUACCAGUUUUAUAAGUAACCCUUGGCAGCAUCGUACGCAGCGUAGUGGACAUCACG [theeternabot_exclusion_KL_Theo_A_25] | 128
UGUUAUGUAUCAGGAUAUUAGUGAUGUUUGUUUAUGUUAGUGAUGUUGAUAUUUGUUUUAUGUAUUUAAGAAGGGAUUGAGAUGU [dcdmullin] | 19.8
GCAGGACGAUGAGGAGGAUGAAUUACUGAAGGAGCGCAUAUGGUUGCAGGUAGGUCGCGGUGAACAAGUAUAGUGAUGUUAUAUC [SSArgA.R] | 179
AAACGUUGGUGCGAUACCAGCUUGCGCGGAAAACGCGCUACUGGAGUGAUGUUCCUAAAUAGCCCUUGGCAGCGCACCGACGAAA [MAT - Same State Theophlline B - Mod of Eli - D9] | 146
UUACAGCCCAGUGAUGUUGGGUAGCGGCGGCGAGGACCGGUACGGCCGCCACUCGGCGCACAGGCGGAGUGAUGUUUUGCUUAAA [Same State Tryptophan A GF 11] | 590
UAUUUAGUGACGGCCGCCACUAUUGUGAUUUAUUUGUUUGAGUGAUGUUUUGAUGUUUGAUUUUGUAGGACCGGGUUAUGUGUUA [awscmullin] | 733
UACUAUAGUGAUGUUAUAGAUAAAACAGAUACCAGUGUAACAUAACACCCUUGGCAGCUGAUAAGGGAAAGUAUAAAUGUGUAUU [AstrosSSTHe-A#2newdesignED] | 188
UUCUACGAGUGAUGUUCGUAGUGUAAUAGCUAGGAUAUCGUUUUUUCGAGAAGGAGCUUCGAAGUGAUACGAAAGUAUCGCUUCG [FMN A 12] | 369
AAUAAAAUCACGGCCGCCACUGAUACUAAUAUUAGCAGUGAUGUUGCUAUGUAUAAUUUAUUAAACAGGACCGGGUGAAUAUUUA [JR_ExcTryptoB_Sub015] | 129
GCCGUACGCAUGGAUACCAGCACUCGUUGAGUGAUGUUCACGAGGUGGUAUUCGACGGGCUGCCCUUGGCAGCCAUGCGUACGGC | 87.3
GUAAUCUUGCUCGAGUGAUGUUCGAGCGAAGGAGCGCGAGAAAUCGCAGGUAGGUCGCGCUCGAAAUAUGAGCGAACAAUUAUUA [Arg A Ex t2b] | 197

same assay, conditions: Eterna round: R107; input ligand: none

Sequence | apparent KD of K4 kissing-loop reporter [nM]
CAGACAUGCGGUAGGUUCAAGCGCUGGGAAGGAGCGCAGAUGACUGCAGGUAGGUCGCCCAGUGAUGUUGGGCUUUCCACCUAUG [Onbeenbi] | 120
CAUACGCAUGGAGGAUAUGAGAUUACUCAUAUCAUUUAAUAUUCUCAGUGAUGUUGAGAUUUAGACUCAGAAGGCCAUGUGUAUG [Ex FMN B 13] | 350
CGUUUAUAGCAGGAUACCAGUACCCAUUAUGUACGUUUAUAGUAGAGUGAUGUUCUAAAGUACCCUUGGCAGCUUCCCGUGACCC [ExTheophylB.Z] | 131
GCCGUACGCAUGGAUACCAGCAGAACUGCCCUCCCAGUGAUGUUGGGAGGAUCUUUCCUAUGCCCUUGGCAGCCAUGCGUACGGC | 126
GCGAACAUUCGCAGUGAUGUUGCGACGGAAGGAGCGCGUGAAAACGCAGGUAGGUCGCCGACAACAUUAAUUUUAAUGUGUUCGC [Arginine A K4 28] | 425
AGUGGACGUGUUCGGAGUGAUGUUCCGGAUACCAGACACGAAAGUGUCCCUUGGCAGCCGGAGUGAUGUUCCGGCGUUCACUAAA [Omei KL Theo A Exc B v2] | 538
UAAUAAAUUCUGGCAAUGUCACUCUUCGAAGGAGCGGACGAAAGUCCAGGUAGGUCGCGAAGAGUGAUGUUCUUCGCGGCGCCAG [Omei KL Arginine A Exc A v1] | 235
UCGAUAGCCAGCGAUACCAGCCCAGUGAUGUUGGGCACAUGGUUGCGGGAAAUCCUAUUGGGCCCUUGGCAGCGCUUGCAUGGGU [Anbixeza] | 119
GGUAGCAUGGCGGCCGCCACUUGCACUCGUCUUGCAUAUUGGCCUAUGAUAGUAGUGAUGUUACUAAGGACCGGGCCAUGCUACC | 194
UUUUUAUGCAGUGAUGUUGCUAAUAUAACAGAGGAUAUGCAUUAAAGCAGAAGGCUGAAAUACUAUACUUUAAUAAAUUAAAUUU [JR_SSFMNA_Sub013] | 107
UGUCAUUGGUCGGCCGCCACUAUAAUAAAAGAGUGAUGUUCUAAAAGACGGACAAAAGUCUGUCGUAGGACCGGGACCGAUGACU [TrypBS 26 #SwitchBubble #StaticStem] | 805
CGCAGUGAUGUUGCUUUUAUUCUUGGUUAACGAGGACCGGUACGGCCGCCACUCGAUUUCUAUCUAUUCCAGUGUUUUUUUGAGU [JR_ExcTryptoA_Sub004] | 304
AGUUCAGAGUGACUCGAUAAGAGUCACAAACGAGGACCGGUACGGCCGCCACUCGAAAUAACGAGAGUGAUGUUCUCGCUGGGCA [FiskerMod 2 - Jieux - Same State Tryptophan A] | 862
GUCUGCGUCUCGGCCGCCACUCACUAGUGAUGUUAGUAAGGAGCGACUAGCGCAGUCCUGAAGAUGAGGACCGGGAGACGCAGGA [Exclusion Tryptophan B GF5] | 119
UCCUGCACGGUCGAUACCAGCCUAUGCAGUGAUGUUGUAAGGUUGUCACUUUAGUACGAAGGCCCUUGGCAGCGAUGAUGUAACA [theeternabot_exclusion_KL_Theo_B_41] | 604
UACACGACUCGUGUAAACCGAGGUAACAGGCAGGAUAUGUAACGGAACAGAAGGGCCAUGUAGCGUGUCCAGUGAUGUUGGAUGC [Betilare] | 186
ACGAUCAUGUCGGCCGCCACUGAGAGUAGUGAUGUUACUCUUUUCCUUUAGUUAUUAUAUUUUAUCAGGACCGGGACAUGUUCGU [JR_ExcTryptoB_Sub022] | 72.3
UGAUACCAGACGGCCGCCACUCUUGCAGUCAAAGACUGCUAAAAGGAAAUCGUCCAGUGAUGUUGGAGGACCGGGUCUGGUAUCU [TrypBX 15 #SwitchBubble #Palindromic #StaticStem] | 1370
AUACGUUUCAGAGGAUAUCGGAGGAGAGUGAUGUUCUCCCAUAGCCCAGUGAUGUUGGAAGCUAUCCGAGAAGGCUGUGGGCGUA [Same State FMN B GF 15] | 186
AAAGCAUUGAGAAGGAGCGUGUCGUGGAGUGAUGUUCCAUUGUAGACCUAAGGUCUACAAGCACAGGUAGGUCGCUCAUUGCUAA [JR_Nu_SSArginiB_Sub023] | 173
AAUACGCCGAAAGGAUAUAUAGAACAUCAAGGGCGCUGACUUUGCUAAAUCACAAGUGAUGUUUGUAUAGAAGGUUCGCAGUCAA [theeternabot_exclusion_KL_FMN_B_30] | 500
